Experimental data published in the RNAGym collection of RNA variant scans (doi:10.1021/acssynbio.7b00057).

B1: Pistol ribozyme (parent)
chain: GGGUCGUUGUUCCAUAAUCGCGUGGAUAUGGCACGCAAGUUUCUACCGGGCACCGUAAAUGUCCGACUGGAGCCGUUCGGGCGGCUAUAAACAGACCUCAGGCCCGAAGCGUGGCGGCACCUGCCGCCGGUGGUAAAAAAGAUCGGAAGAGCACACGUCU

Variants of: B1
Test: aptazyme ON/OFF ratio, guanine; higher = stronger switching; co-transcriptional cleavage with and without guanine

Variant	aptazyme ON/OFF ratio
U7C U8G U11G C12G	1.1
U7C U8G U11G C12A	1.29
U7C U8G U11G C12U	1.19
U7C U10A U11A	1.29
U7C U10A U11G	1.46
U7C U10A U11C	1.04
U7C U8G U10G U11A C12A C13G	1.13
U7C U8G U10G U11A C12A C13U	1.2
U7C U8G U10G U11A C12A C13A	1.11
U7C U10G U11A C12U C13G	1.1
U7C U10G U11A C12U C13U	1.22
U7C U10G U11A C12U C13A	1.19
U7C U8G U11G C13G	1.07
U7C U8G U11G C13A	1.13
U7C U8G U11G C13U	1.14
U7C U10A C12A C13U	1.25
U7C U10A C12A C13A	1.16
U7C U10A C12A C13G	1.08
U7C U10G U11C C12A C13G	1.11
U7C U10G U11C C12A C13A	1.21
U7C U10G U11C C12A C13U	1.18

Variant	aptazyme ON/OFF ratio
U7C U10C U11A C12U C13G	1.32
U7C U10C U11A C12U C13A	1.28
U7C U10C U11A C12U C13U	1.22
U7C U10C U11G C12G C13G	1.16
U7C U10C U11G C12G C13A	1.19
U7C U10C U11G C12G C13U	1.1
U7C U8G U11A C12A	1.14
U7C U8G U11A C12U	1.15
U7C U8G U11A C12G	1.1
U7C U10A C12U	1.09
U7C U10A C12A	1.22
U7C U10A C12G	1.29
U7C U8G U10G U11C C13G	1.2
U7C U8G U10G U11C C13A	1.24
U7C U8G U10G U11C C13U	1.14
U7C U10A C12G C13A	1.18
U7C U10A C12G C13G	1.14
U7C U10A C12G C13U	1.23
U7C U10C C13G	1.28
U7C U10C C13U	2.47
U7C U10C C13A	1.11

Variant	aptazyme ON/OFF ratio
U7C U10C U11G C12U C13G	1.41
U7C U10C U11G C12U C13U	1.16
U7C U10C U11G C12U C13A	1.16
U7C U8G U10C C12G C13G	1.13
U7C U8G U10C C12G C13U	1.35
U7C U8G U10G U11A C12G C13A	1.1
U7C U8G U10G U11A C12G C13G	1.21
U7C U8G U10G U11A C12G C13U	1.14
U7C U10A U11A C12U	1.2
U7C U10A U11A C12G	1.28
U7C U10A U11A C12A	1.17
U7C U10C U11C	1.74
U7C U10C U11A	2.11
U7C U10C U11G	1.21
U7C U10A C13U	1.04
U7C U10A C13G	1.05
U7C U10A C13A	1.06
U7C U10A U11C C13U	1.01
U7C U10A U11C C13A	1.02
U7C U10A U11C C13G	1.01
U7C U8G U10G U11G C12G	1.21

Variant	aptazyme ON/OFF ratio
U7C U8G U10G U11G C12A	1.28
U7C U8G U10G U11G C12U	1.21
U7C U10G U11C C12A	2.07
U7C U8G U10C C12U	1.38
U7C U10G C12A C13G	1.14
U7C U10G C12A C13U	1.15
U7C U10G C12A C13A	1.15
U7C U10C U11G C13U	1.74
U7C U10C U11G C13A	0.947
U7C U10C U11G C13G	1.17
U7C U8G U10G C12A C13A	1.24
U7C U8G U10G C12A C13U	1.33
U7C U8G U10G C12A C13G	1.09
U7C U8G U10C U11C	3.48
U7C U8G U10C U11A	2.93
U7C U8G U10C U11G	2
U7C U8G U11A C12G C13U	1.09
U7C U8G U11A C12G C13A	1.11
U7C U8G U11A C12G C13G	1.11
U7C U8G U10G U11A C13U	1.28
